± gives the uncertainty stated by the source.
Experiment: amyloid nucleation score (Sup35N fusion, yeast selection) (log enrichment); library NNK3; higher = more nucleation; inactive = no reads after selection
Outline: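 Sup35N fusions to peptides of 20 random codons were expressed in psi-negative yeast, induced 24 hours with 100 μM copper sulfate, and grown 7 days at 30°C on medium lacking adenine and uracil. Input and output plasmid inserts were sequenced by Illumina. The nucleation score is the DiMSum log enrichment of output over input reads, centred on the mode score of non-aggregating sequences. Sequences with under 100 input reads were excluded.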

Substance	amyloid nucleation score
IGNFRGL	inactive
CAVYCNLNDVIGVFTILQRS	inactive
ILPPNWATSRVNAAGWFLGQ	inactive
ASCPLSKKWMELGKCAGPTH	inactive
ILDFDFTSLPNMMRGCRSHL	inactive
FGLITYFLL	1 ± 0.13
YSCGFDLAAWAFTDVIRRRI	inactive
IDYAYGNVTNNPQKP	inactive
VTLRCNGDMVYHYLPCGVLR	inactive
FYFYSVCYYGRWIKKPCHLR	inactive
RRFTHRIEVRTSVAIS	inactive
WEFLCFFAT	inactive
RFSCEYVATLTLSGRQAVKH	0.043 ± 0.72
LNIQFFINLALAEGFLYNRK	2.97 ± 0.084
LSLWMGVEDFVLCGSVNTSR	inactive
RTSEPKTAHIMNEAIRRC	inactive
KGSVMTCDSYTCFMLNSEVL	1.47 ± 0.13
PFSSLASVVPLRGFG	inactive
CCFTLGAVSNCSLRGNSQTL	-1.2 ± 1.9
NYSFWLAIYSPCRSKCYARC	1.58 ± 0.057
GLVVVT	inactive
NRKSRSYTLFLV	inactive
HQIQLVATHPTEILHAGTSN	inactive
DIAKCNACGHENMFCRWMCV	inactive

Substance	amyloid nucleation score
TLPMLDNTNNFTSPL	-0.034 ± 0.31
YVLFCCCPLMDFITDLSLST	2.1 ± 0.055
ARWTMRAMLDWSIALSDHWV	inactive
PMYVHRKDYKVVGSYMSTM	inactive
GNTFLWCGRVDSYSTHSYLC	inactive
FECKLNRGWSKQARWLNKLY	0.177 ± 0.38
HKRLGPLHYRLICG	inactive
KLWFGHMPTIF	inactive
IRLYFQYFLLSG	2.35 ± 0.063
NLQLESFYWFGPRGVRKHLE	inactive
QYFVP	inactive
VTVLQM	inactive
ISLGCLYLFCYVTGCICSVG	1.49 ± 0.094
ENSSLFFLRDCELWWNVRTR	1.59 ± 0.094
TSSAHNTRSCLMM	inactive
ISMDRYHNTRHSVNRILLTC	inactive
FFLNGVCDCLRIPCTNVYLY	inactive
TSSNRVLVIPVELMIPWRF	-0.299 ± 1.1
GVGATATTFWGVRWVRRSTN	inactive
VRWWWLNF	inactive
NWYSLKGVISNFSAVFSHGY	inactive
RSMVGWACYLSWRFA	inactive
FDTYTLSNTF	inactive
VTVSYIVNGMTSLFQVDVAS	inactive

Substance	amyloid nucleation score
ILWSILVYLTLITVLCLCHF	0.444 ± 0.26
LVYVLDCRAKLTNYLISTLY	inactive
SDLMRKKMDGMDRNEGCPIR	inactive
TCMHC	inactive
EKLIIELLCTT	inactive
SLYRSEVMVHAVVVYVYFGK	inactive
TIMAFIIAIRSLDRCQSSGM	inactive
GWNSRM	inactive
GFVNSVRFDLIECDVLKRSN	inactive
KSMIAGVTMWLLCTVSLSYN	inactive
LLLIWWNLALNLKLFFELKV	inactive
GAMWLSCT	inactive
CWLNLGVLKSLY	inactive
GCFSSSESTIWGGAVDAKVS	inactive
RSYLHCSTK	inactive
DETVMFSFKFIVKSVVVDPR	inactive
AHLQVYFSSNVC	inactive
ELGHSKSTMFNVYYVVWSRC	inactive
PWSWWTHYTSGCQYQFGYRG	-0.749 ± 1.1
INLLVSVKGWYYVAPTAWYE	1.16 ± 0.15
RYNRA	inactive
IILRFDGFTMSSPRNLVIDG	inactive
PNRNYVCGMSCYGAVVSELR	inactive
LYSGFRGMPKYTDKNCMGRV	inactive

Substance	amyloid nucleation score
GFRYSLLSSRSFYWHRSPSM	inactive
GFNVTWFEIYGGLEDSWWFC	inactive
PLQNKASVRVGCWAML	inactive
IDVLV	inactive
TYTSVGETS	inactive
VCAVSFGRWYG	inactive
TPLITYHQWFLAICEWLDF	inactive
IISMVCED	0.297 ± 0.32
DVGYSDMLVA	inactive
NEVDDWFSD	inactive
SDKRPWGFRNRDIYVIVGHR	inactive
RAMCIESTYLVMPYTTCNQT	inactive
DRDMVCMSEL	inactive
IEGVGCIFRDLGDFLRGPWG	inactive
TPNRGDFWITCSGGVGVWYG	inactive
FKDMFPNLSTCLLIVRM	inactive
SVLSLLLCYRCSRL	-0.081 ± 0.98
VPTVLDRFDMMHVSEYRDGA	inactive
ISRDGVRCEVWMWPWPREPA	inactive
FWGFPRKSYADMMGSTRGSA	inactive
WHDYTQRGVWAHGTALVWG	inactive
SNSSYWRICRLETCNPVGYK	inactive
LDVMTCNRLKVTVDFMCMNA	inactive
MLGWCYLMTTCE	inactive

Substance	amyloid nucleation score
CGAQALAQWYLYLLSHAIQY	inactive
LAMHIALDSNRDKAFGVLNE	inactive
DKIGDFNLYWHVKALLAYFY	inactive
IFVRSLAQLGLIFDFHIFWE	inactive
VAFYVTHGAIVYFSMGCAGI	1.63 ± 0.11
NNVGPAFHDAC	inactive
LDLDSNRFKVDLNDLYELVV	inactive
WCSPQFRLSFYLGISNDHWC	0.966 ± 0.09
LHYMYTYFTTKVLSSRIGGV	inactive
ISPCVPKSAWSIFRIAI	inactive
PIMVRRHEGSH	inactive
CIMFVFILLQYAFYIYILLV	inactive
TSSLWHWMCLEITLPSRSCK	inactive
PRPSYWHRYSWSTTIVGGIS	inactive
STLNGGSWVMIYAEDLTS	inactive
ETWEIGRSKMGHRDCFCNYM	inactive
QREGSNCAILCLL	inactive
IRGASYPSATNRHAAMLVWM	inactive
IFWYEDKIYKMGWQFGGIAY	1.1 ± 0.11
DIYFTSESSVYIVHWFLFRH	inactive
CVLAFVVVLLGWGHSSGAGG	0.825 ± 0.2
